To fix the notation:
B1: scFv antibody variant JS116 (scFv, V domains shown)
VH: QVQLQESGGGLVQPGGSLRLACAGSGFTFSNFAMAWVRLAPGKGLEWVSGISDDGTITDYADSVKGRFTISRDNSKNTLYLQMNSLRAEDTAVYYCVRVPPPAPVQGPDYWGQGTTVTVSS
VL: DVVMTQSPSAMSASVGDRVTITCRASQGISNYLAWFQQKPGKVPKRLIYAASSLQGGVPSRFRGRGSGTDFTLSISCLQSEDFATYYCQQYHSYPLTFGGGTKLSVLG
notes: No full VH/VL is printed
B2: scFv antibody variant JS9 (scFv, V domains shown)
VH: EVQLVGSGGGVVQPGRSLRLSCAASGFNFDDHAMHWVRQAPGKGLEWVSSISGSGGDTYYADSVKGRFTIARDNSKNTLYLQMNSLRAEDTAVYYCATEARGLAHWGQGTLVTVSS
VL: SSELTQDPAVSVALGQTASITCSGHKLGERYACWYQQKPGQSPVLVIYQDTKRPSGIPERFSGSNTGNTATLTITGTQAMDEADYYCQAWDSSTVVFGGGTKLTVLG
B3: scFv antibody variant JS144 (scFv, V domains shown)
VH: QVQLQESGGGLVQPGGSLRLACAGSGFTFSNFAMAWVRLAPGKGLEWVSGISDDGTITDYADSVKGRFTISRDNSKNTLYLQMNSLRAEDTAVYYCVRVPSPAPVQGPDYWGQGTTVTVSS
VL: DVVMTQSPSAMSASVGDRVTITCRASQGISNYLAWFQQKPGKVPKRLIYAASSLQGGVPSRFRGRGSGTDFTLSISCLQSEDFATYYCQQYHSYPLTFGGGTKLSVLG
B4: scFv antibody variant JS48 (scFv, V domains shown)
VH: QVQLQESGGGLVQPGGSLRLTCAGSGFTFSNFAMAWVRLAPGKGLEWVSGISDDGTITDYADSVKGRFTISRDNSKNTLYLQMNSLRAEDTAVYYCVKVPSPAPMQGPDYWGQGTLVTVSS
VL: ETTLTQSPSSLSASVGDRVTITCRASQSISTYLNWYQQKPGKAPKSLIYGASNLQSGVSSQFSGRGPGTDFTLTISSLQPEDFATYYCQQGNSVPLTFGGGTKVDIKR
B5: scFv antibody variant JS30 (scFv, V domains shown)
VH: EVQLVESGPGQVKPSETLSLTCSVSGGSISSRDWWGWVRQPPGEGLEWIGEIYHSGTTNYNPSLKSRVTMSMDTSKNQLSLKLTGVTAVDTAVYYCVTYSASDAAFDSWGQGTLVTVSS
VL: ETTLTQSPSSLSASVGDRITITCRASQSISTCLNWYQQKPGKAPKSLIYGASILQSGVSSQFSGSGPGTDFTLTIGSLQPEGFATYYCQQGNSVPLTFGGGTKVDIKR
B6: scFv antibody variant JS41 (scFv, V domains shown)
VH: EVQLVESGPGQVKPSETLSLTCSVSGGSISSRDWWGWVRQPPGEGLEWIGEIYHSGTTNYNPSLKSRVTMSMDTSKNQLSLKLTGVTAVDTAVYYCVTYSAYDAAFDSWGQGTLVTVSS
VL: ETTLTQSPSSLSASVGDRITITCRASQSISTYLSWYQQKPGKAPKSLIYGASNLQSGVSSQFRGSGPGTDFTLTISSLQPEDFATYYCQQGNSVPLTFGGGTKVDIKR

The target of the first assay is T1, Fc alpha receptor-ECD-streptavidin-Alexa488 (human, UniProt P24071 22-227, labeled with Alexa488 fluorescent molecules (sites not given)).
T1 construct: Tetrameric antigen made in Expi293F cells and labelled with Alexa488 for flow cytometry; Any linker or purification tag (Ni-NTA resin was used) is not described; also called Fc alpha receptor-ECD-streptavidin-Alexa488 probe; Fc alpha receptor-ECD-streptavidin-Alexa488 antigen; not shown: streptavidin tag
T1 sequence (P24071 22-227 limits assumed): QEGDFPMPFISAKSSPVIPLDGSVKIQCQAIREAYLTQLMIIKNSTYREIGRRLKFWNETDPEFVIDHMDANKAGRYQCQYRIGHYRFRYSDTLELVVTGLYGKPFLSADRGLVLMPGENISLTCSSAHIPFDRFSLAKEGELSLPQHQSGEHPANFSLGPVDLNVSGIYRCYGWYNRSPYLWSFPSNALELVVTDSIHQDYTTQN
The experiment in a line: flow cytometry, legend of FIG. 8. A general note: Flow cytometry measures light scatter and fluorescence of single cells or particles in a stream.
For B1, the binding result is recorded as “binds”.

A further assay deals with T1, Fc alpha …. The experiment in a line: flow cytometry, scFv displayed on E. coli spheroplasts, 50 nM Alexa488-labelled antigen.
Regarding B2, the binding result is reported as “binds”.
Still for that read-out and setting: next, B3: “binds”.
Still for that read-out and setting: under B4 stands “binds”.
Take B5: the binding result is listed as “binds”.
On the same count and under the same terms, under B6 stands “binds”.
